{"source": "patent US20150031112A1", "about": "(SHIRE HUMAN GENETIC THERAPIES, published 2015)", "biological_target": "the molecule itself", "assay": "X-ray crystallography, crystallographic symmetry applied (self-association, homotrimer)"}
{"protein": "NAGLU-kif (recombinant human alpha-N-acetylglucosaminidase expressed in HT1080 cells treated with kifunensine) (enzyme, N-linked high mannose glycans at N261, N272, N435, N503, N526 and N532 (numbered as amino acids 24-743), There is one molecule in the asymmetric unit, and the trimer is generated by crystallographic symmetry; also called NAGLU24-743; Naglu-kif R3) DEAREAAAVRALVARLLGPGPAADFSVSVERALAAKPGLDTYSLGGGGAARVRVRGSTGVAAAAGLHRYLRDFCGCHVAWSGSQLRLPRPLPAVPGELTEATPNRYRYYQNVCTQSYSFVWWDWARWEREIDWMALNGINLALAWSGQEAIWQRVYLALGLTQAEINEFFTGPAFLAWGRMGNLHTWDGPLPPSWHIKQLYLQHRVLDQMRSFGMTPVLPAFAGHVPEAVTRVFPQVNVTKMGSWGHFNCSYSCSFLLAPEDPIFPIIGSLFLRELIKEFGTDHIYGADTFNEMQPPSSEPSYLAAATTAVYEAMTAVDTEAVWLLQGWLFQHQPQFWGPAQIRAVLGAVPRGRLLVLDLFAESQPVYTRTASFQGQPFIWCMLHNFGGNHGLFGALEAVNGGPEAARLFPNSTMVGTGMAPEGISQNEVVYSLMAELGWRKDPVPDLAAWVTSFAARRYGVSHPDAGAAWRLLLRSVYNCSGEACRGHNRSPLVRRPSLQMNTSIWYNRSDVFEAWRLLLTSAPSLATSPAFRYDLLDLTRQAVQELVSLYYEEARSAYLSKELASLLRAGGVLAYELLPALDEVLASDSRFLLGSWLEQARAAAVSEAEADFYEQNSRYQLTLWGPEGNILDYANKQLAGLVANYYTPRWRLFLEALVDSVAQGIPFQQHQFDKNVFQLEQAFVLSKQRYPSQPRGDTVDLAKKIFLKYYPRWVAGSW", "values": [{"measurement": "binding result", "result": "binds"}]}
